# Data from PMC7137648 (2020).
# B1: SR-F1(20-353) (domain or fragment)
# chain: SELDPKGQHVCVASSPSAELQCCAGWRQKDQECTIPICEGPDACQKDEVCVKPGLCRCKPGFFGAHCSSRCPGQYWGPDCRESCPCHPHGQCEPATGACQCQADRWGARCEFPCACGPHGRCDPATGVCHCEPGWWSSTCRRPCQCNTAAARCEQATGACVCKPGWWGRRCSFRCNCHGSPCEQDSGRCACRPGWWGPECQQQCECVRGRCSAASGECTCPPGFRGARCELPCPAGSHGVQCAHSCGRCKHNEPCSPDTGSCESCEPGWNGTQCQQPCLPGTFGESCEQQCPHCRHGEACEPDTGHCQRCDPGWLGPRCEDPCPTGTFGEDCGSLIK
# modifications: N-linked glycan at Asn 289
# B2: SR-F1(20-421), recombinant soluble SR-F1 ectodomain (domain or fragment)
# chain: SELDPKGQHVCVASSPSAELQCCAGWRQKDQECTIPICEGPDACQKDEVCVKPGLCRCKPGFFGAHCSSRCPGQYWGPDCRESCPCHPHGQCEPATGACQCQADRWGARCEFPCACGPHGRCDPATGVCHCEPGWWSSTCRRPCQCNTAAARCEQATGACVCKPGWWGRRCSFRCNCHGSPCEQDSGRCACRPGWWGPECQQQCECVRGRCSAASGECTCPPGFRGARCELPCPAGSHGVQCAHSCGRCKHNEPCSPDTGSCESCEPGWNGTQCQQPCLPGTFGESCEQQCPHCRHGEACEPDTGHCQRCDPGWLGPRCEDPCPTGTFGEDCGSTCPTCVQGSCDTVTGDCVCSAGYWGPSCNASCPAGFHGNNCSVPCECPEGLCHPVSGSCQPGSGSRDTLIK
# modifications: N-linked glycans at Asn 289, 382 and 393
# B3: SR-F1(20-221) (domain or fragment)
# chain: SELDPKGQHVCVASSPSAELQCCAGWRQKDQECTIPICEGPDACQKDEVCVKPGLCRCKPGFFGAHCSSRCPGQYWGPDCRESCPCHPHGQCEPATGACQCQADRWGARCEFPCACGPHGRCDPATGVCHCEPGWWSSTCRRPCQCNTAAARCEQATGACVCKPGWWGRRCSFRCNCHGSPCEQDSGRCACRPGWWGPECQQLIK
# Target: complement protein C1q (human, UniProt P02745 23-245; P02746 28-253; P02747 29-245)
# Assay: SPR
# Chain of complement protein C1q (P02745 23-245, chain 1 of 3): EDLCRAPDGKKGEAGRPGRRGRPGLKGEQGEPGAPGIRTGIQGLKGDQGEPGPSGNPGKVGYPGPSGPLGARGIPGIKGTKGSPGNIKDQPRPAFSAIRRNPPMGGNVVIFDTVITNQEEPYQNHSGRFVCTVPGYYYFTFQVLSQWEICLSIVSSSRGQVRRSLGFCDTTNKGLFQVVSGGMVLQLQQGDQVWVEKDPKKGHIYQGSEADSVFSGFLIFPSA
# Chain of complement protein C1q (P02746 28-253, chain 2 of 3): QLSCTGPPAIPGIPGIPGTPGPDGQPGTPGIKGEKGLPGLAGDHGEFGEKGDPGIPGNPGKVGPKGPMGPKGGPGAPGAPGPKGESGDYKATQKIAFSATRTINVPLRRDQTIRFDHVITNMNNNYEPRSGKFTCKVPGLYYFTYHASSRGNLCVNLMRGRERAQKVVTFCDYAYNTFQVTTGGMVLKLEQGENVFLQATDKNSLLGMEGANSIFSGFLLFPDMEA
# Chain of complement protein C1q (P02747 29-245, chain 3 of 3): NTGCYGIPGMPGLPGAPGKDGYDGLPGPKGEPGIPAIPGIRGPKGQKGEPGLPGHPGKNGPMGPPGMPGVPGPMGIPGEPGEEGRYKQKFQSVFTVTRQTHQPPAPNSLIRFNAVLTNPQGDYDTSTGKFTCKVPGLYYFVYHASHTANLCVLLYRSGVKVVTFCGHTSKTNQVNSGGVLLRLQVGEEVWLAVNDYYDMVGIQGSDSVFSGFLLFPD
row,Kd [nM],Binder
1,42,B1
2,154,B2
3,19,B3
